From PMC5344419, “The structure of FKBP38 in complex with the MEEVD tetratricopeptide binding-motif of Hsp90” (PLoS ONE, 2017)

B1: Hsp90β EDASRMEEVD C-terminal peptide (peptide)
peptide: EDASRMEEVD
notes: the terminal ten amino-acid residues of Hsp90β
B2: Yeast C-terminal fragment of Hsp90 (yHsp90^546-709) (domain or fragment)
chain: not shown
notes: Expressed from pRSETA as a His-tagged fusion; also called C-terminal domain of yeast Hsp90
B3: FKBP8 (FKBP^1-380), amino acids 1-380, lacking the C-terminal trans-membrane helix (domain or fragment, UniProt Q14318 1-380, looked up)
chain: MASCAEPSEPSAPLPAGVPPLEDFEVLDGVEDAEGEEEEEEEEEEEDDLSELPPLEDMGQPPAEEAEQPGALAREFLAAMEPEPAPAPAPEEWLDILGNGLLRKKTLVPGPPGSSRPVKGQVVTVHLQTSLENGTRVQEEPELVFTLGDCDVIQALDLSVPLMDVGETAMVTADSKYCYGPQGRSPYIPPHAALCLEVTLKTAVDGPDLEMLTGQERVALANRKRECGNAHYQRADFVLAANSYDLAIKAITSSAKVDMTFEEEAQLLQLKVKCLNNLAASQLKLDHYRAALRSCSLVLEHQPDNIKALFRKGKVLAQQGEYSEAIPILRAALKLEPSNKTIHAELSKLVKKHAAQRSTETALYRKMLGNPSRLPAKCPG
notes: FKBP8, amino acids 1-380, lacking the C-terminal trans-membrane helix; numbers count on full-length FKBP8 (Arg 184 is Arg 127 in FKBP38 numbering); Non-cleavable C-terminal His6 tag from pDMXV4; also called FKBP8 isoform; not shown: His6, C-terminal, kept
B4: FKBP38 isoform (FKBP^92-380), immunophilin and TPR domain (domain or fragment, UniProt Q14318 92-380, looked up)
chain: EWLDILGNGLLRKKTLVPGPPGSSRPVKGQVVTVHLQTSLENGTRVQEEPELVFTLGDCDVIQALDLSVPLMDVGETAMVTADSKYCYGPQGRSPYIPPHAALCLEVTLKTAVDGPDLEMLTGQERVALANRKRECGNAHYQRADFVLAANSYDLAIKAITSSAKVDMTFEEEAQLLQLKVKCLNNLAASQLKLDHYRAALRSCSLVLEHQPDNIKALFRKGKVLAQQGEYSEAIPILRAALKLEPSNKTIHAELSKLVKKHAAQRSTETALYRKMLGNPSRLPAKCPG
notes: FKBP8, fragment 92-380 containing both the immunophilin (PPIase) and TPR domain; numbers count on full-length FKBP8; also called FKBP8^92-380; not shown: His6 (from the vector pDMXV4), C-terminal, kept
B5: Hsp90α^464-732, C-terminal domain of human Hsp90α (domain or fragment)
chain: not shown
notes: Hsp90α, human, residues 464-732 (C-terminal domain); Expressed from p2E as a PreScission cleavable His-tagged fusion; also called C-terminal domain of Hsp90α

Key:
Settings in all cases: both partners purified
[1] = biological target: B3; assay: ITC; 2 mM peptide injected into 50 μM FKBP^1-380 in the cell; ITC200; 20 mM Tris, 300 mM NaCl, 1 mM EDTA pH 7.5
[2] = biological target: B3; assay: ITC; 700 to 800 μM FKBP construct injected into 50 μM Hsp90 or Hsp70 protein in the cell; ITC200; 20 mM Tris, 300 mM NaCl, 1 mM EDTA pH 7.5
Full-length human Hsp90β = biological target: T1, Full-length human Hsp90β (human, UniProt P08238 1-724); assay: as above
T1 construct: Hsp90β, human, full length; Expressed from pRSETA as a His-tagged fusion; also called intact Hsp90β

[3] = biological target: T2, Hsp90β^295-724, middle and C-terminal domain fragment of human Hsp90β (human, UniProt P08238 295-724); assay: as above
T2 construct: Hsp90β, human, residues 295-724 (middle and C-terminal domain, with the MEEVD motif); Expressed from pRSETA as a His-tagged fusion; also called Hsp90^295-724
T2 sequence (P08238 295-724): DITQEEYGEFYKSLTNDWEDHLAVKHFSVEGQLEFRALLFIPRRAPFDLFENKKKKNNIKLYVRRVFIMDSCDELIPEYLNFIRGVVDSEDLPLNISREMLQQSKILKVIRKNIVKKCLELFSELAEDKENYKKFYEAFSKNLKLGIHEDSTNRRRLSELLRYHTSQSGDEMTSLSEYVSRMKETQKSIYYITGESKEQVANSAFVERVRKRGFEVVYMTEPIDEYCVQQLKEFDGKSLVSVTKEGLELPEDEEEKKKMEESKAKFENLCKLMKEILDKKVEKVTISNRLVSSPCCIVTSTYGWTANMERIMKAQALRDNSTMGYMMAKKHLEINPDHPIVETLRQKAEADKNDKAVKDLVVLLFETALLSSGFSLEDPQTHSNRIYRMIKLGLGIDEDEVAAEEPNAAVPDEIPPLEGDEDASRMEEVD

T1 sequence (P08238 whole entry, the tested form may be a part): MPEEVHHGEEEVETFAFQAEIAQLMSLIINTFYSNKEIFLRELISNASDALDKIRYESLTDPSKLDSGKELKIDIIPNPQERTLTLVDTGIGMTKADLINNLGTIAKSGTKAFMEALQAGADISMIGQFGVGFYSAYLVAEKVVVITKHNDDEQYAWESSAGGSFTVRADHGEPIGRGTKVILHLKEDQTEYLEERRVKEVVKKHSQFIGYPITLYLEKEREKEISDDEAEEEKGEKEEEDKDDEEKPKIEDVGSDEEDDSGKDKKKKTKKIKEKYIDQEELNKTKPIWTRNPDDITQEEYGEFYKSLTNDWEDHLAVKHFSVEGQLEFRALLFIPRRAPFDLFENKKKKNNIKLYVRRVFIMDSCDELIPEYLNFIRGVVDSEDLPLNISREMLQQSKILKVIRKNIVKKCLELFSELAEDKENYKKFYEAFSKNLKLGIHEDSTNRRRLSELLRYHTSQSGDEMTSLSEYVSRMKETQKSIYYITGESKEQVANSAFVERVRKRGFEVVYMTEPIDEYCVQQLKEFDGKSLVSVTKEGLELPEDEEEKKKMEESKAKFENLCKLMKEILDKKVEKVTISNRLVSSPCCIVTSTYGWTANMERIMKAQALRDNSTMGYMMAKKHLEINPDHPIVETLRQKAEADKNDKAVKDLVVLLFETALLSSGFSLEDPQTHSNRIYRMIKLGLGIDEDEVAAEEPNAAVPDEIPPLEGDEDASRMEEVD

Row | Kd [1] | Kd [2] | Kd (Full-length human Hsp90β) | stoichiometry N (Full-length human Hsp90β) | also measured | Binder
1 | 64.5 ± 3.7 µM | – | – | – | – | B1
2 | – | 2.3 ± 0.2 µM | – | – | – | B2
3 | 147 µM | – | – | – | – | GSGPTIEEVD (C-terminal peptide of human Hsp70) [Human Hsp70 GSGPTIEEVD C-terminal peptide]
4 | – | – | 2.8 ± 0.1 µM | 1 | Kd [3]: 6.4 ± 0.5 µM | B3
5 | – | – | 2.6 ± 0.2 µM | 1 | – | B4
6 | – | 8.3 ± 0.6 µM | – | – | – | B5
